Biological target: s127H1-t2 (Influenza A virus H1N1 A/Brisbane/59/2007)
Details: remark: other sources report otherwise

B1: monoclonal antibody CR6261 (antibody, V domains shown)
VH: EVQLVESGAEVKKPGSSVKVSCKASGGPFRSYAISWVRQAPGQGPEWMGGIIPIFGTTKYAPKFQGRVTITADDFAGTVYMELSSLRSEDTAMYYCAKHMGYQVRETMDVWGKGTTVTVSS
VL: QSVLTQPPSVSAAPGQKVTISCSGSSSNIGNDYVSWYQQLPGTAPKLLIYDNNKRPSGIPDRFSGSKSGTSATLGITGLQTGDEANYYCATWDRRPTAYVVFGGGTKLTVLG
- Kd: 3.5 nM

— patent publication US20170209564A1
